Measured values reported in article PMC8145704, “Conformational Plasticity of Hepatitis B Core Protein Spikes Promotes Peptide Binding Independent of the Secretion Phenotype” (Microorganisms, 2021).

How the values were obtained:
Assay in all cases: negative-staining electron microscopy
[1] = molecular target: F97L-HBc capsids (Hepatitis B virus (genotype D; strain ayw)) (UniProt P03146)
[2] = molecular target: L60V-HBc capsids (Hepatitis B virus (genotype D; strain ayw)) (UniProt P03146)
[3] = molecular target: P5T-HBc capsids (Hepatitis B virus (genotype D; strain ayw)) (UniProt P03146)

F97L-HBc capsids (from UniProt P03146 1-183) (natural protein)
stoichiometry N (subunits per capsid) [1]: 240

L60V-HBc capsids (from UniProt P03146 1-183) (natural protein)
stoichiometry N (subunits per capsid) [2]: 240

P5T-HBc capsids (from UniProt P03146 1-183) (natural protein)
stoichiometry N (subunits per capsid) [3]: 240
